These results are taken from US20100160556A1, “GLP-1 Fusion Peptides Conjugated to Polymer(s), Their Production and Use” (priority 2007, published 2010).

The test system of this assay is type II diabetic mice (C57BL/Ks-Lepr db/db). Kind of assay: In vivo bioactivity in type II diabetic mice. To be noted: 5 μg peptide s.c. twice a day, day 2, 4, 7, 10. The protocol: 11-week-old type II diabetic mice (C57BL/Ks-Lepr^db/db, Harlan) were treated with 5 μg peptide by subcutaneous injection twice a day at 9 a.m. and 5 p.m. (n=5 per group). Blood glucose was measured before (day 0) and after treatment with GLP^CM peptides (Day 2, 4, 7, 10) at 10 a.m. after an overnight fastening period. Data were presented in relation to blood glucose levels measured at day 0.
Best results were obtained with recombinant SEQ ID NO:6 (CM1) and synthetic SEQ ID NO:8 (CM3). In FIG. 9 (y-axis) the relative effect of the treatment is shown. Blood glucose at day ═O was set to 1. Untreated animals undergo continuous increase in blood glucose level over time, whereas animals treated with inventive peptides display grosso modo a continuous decrease of the blood glucose level over time.

B1: GLP-1(7-37)—IP2-RR-GLP2 (peptide)
chain: HAEGTFTSDVSSYLEGQAAKEFIAWLVKGRGRRDFPEEVAIAEELGRRHADGSFSDEMSTILDNLATRDFINWLIQTKITDKK
notes: 83 aa fusion peptide
On to B1, for which the “anti-hyperglycemia effect (blood glucose relative to day 0)” value was “anti-hyperglycemia effect”.
